According to patent US20130078216A1 (published 2013):
Numbering of substitutions follows the chain as printed. Names may count otherwise. Each block holds one binder with its values, some of them ahead of it.

How the values were obtained:
[1] = target: T1, mouse ASGPR on the murine liver cell line Hepa1c1c7 (and on mouse liver in vivo) (mouse, UniProt P34927 1-284); assay: cell-based or functional assay
T1 sequence (looked up): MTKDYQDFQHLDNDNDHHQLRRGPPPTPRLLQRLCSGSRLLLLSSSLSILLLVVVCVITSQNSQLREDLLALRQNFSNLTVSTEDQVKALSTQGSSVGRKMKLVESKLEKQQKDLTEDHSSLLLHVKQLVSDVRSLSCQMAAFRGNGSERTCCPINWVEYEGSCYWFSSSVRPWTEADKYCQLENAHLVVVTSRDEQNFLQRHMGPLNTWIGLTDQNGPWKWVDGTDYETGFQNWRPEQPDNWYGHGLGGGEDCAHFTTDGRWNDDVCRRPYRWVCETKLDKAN

[2] = target: T2, (His)6-Human ASGPR H1 Stalk Domain (human, UniProt P07306 62-153); assay: BIAcore, biotinylated stalk domain on a streptavidin chip, flow 40 µl/min
T2 construct: Biotinylated and immobilised on a streptavidin chip; also called human (His)6-ASGPR H1 stalk domain; (His)6-human ASGPR H1 stalk domain residues glutamine 62-cysteine 153
T2 sequence: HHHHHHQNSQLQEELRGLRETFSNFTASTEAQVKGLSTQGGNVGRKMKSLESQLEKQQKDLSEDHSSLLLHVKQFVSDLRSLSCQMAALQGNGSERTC
Description: (§1) To assay for potential dAb binding activity human (His)₆-ASGPR H1 stalk domain, human (His)₆-ASGPR H1 lectin domain and mouse (His)₆-ASGPR H1 extracellular domain were biotinylated and immobilised on a biacore Streptavidin chip surface.

[3] = target: T3, (His)6-Human ASGPR H1 Lectin Domain (human, UniProt P07306 154-291); assay: BIAcore, biotinylated antigen on a streptavidin chip, FLAG-tagged dAb, 40 µl/min
T3 construct: Biotinylated and immobilised on a streptavidin chip; also called human (His)6-ASGPR H1 lectin domain; human (His)6 lectin domain
T3 sequence: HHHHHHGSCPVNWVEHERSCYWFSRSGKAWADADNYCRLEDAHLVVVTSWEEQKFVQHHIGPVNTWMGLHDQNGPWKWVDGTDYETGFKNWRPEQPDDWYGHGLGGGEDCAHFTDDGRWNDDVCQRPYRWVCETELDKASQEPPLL
Description: as §1

[4] = target: T4, (His)6-Mouse ASGPR H1 (mouse, UniProt P34927 61-284); assay: BIAcore epitope mapping, 1 µM dAb over (His)6 mouse ASGPR H1 on a CM5 chip
T4 construct: Expressed in HEK293E, Ni-NTA purified; coated on a CM5 chip or biotinylated and captured on a streptavidin chip; The entry includes the His tag; also called mouse (His)6-ASGPR H1; mouse (His)6-ASGPR H1 extracellular domain
T4 sequence: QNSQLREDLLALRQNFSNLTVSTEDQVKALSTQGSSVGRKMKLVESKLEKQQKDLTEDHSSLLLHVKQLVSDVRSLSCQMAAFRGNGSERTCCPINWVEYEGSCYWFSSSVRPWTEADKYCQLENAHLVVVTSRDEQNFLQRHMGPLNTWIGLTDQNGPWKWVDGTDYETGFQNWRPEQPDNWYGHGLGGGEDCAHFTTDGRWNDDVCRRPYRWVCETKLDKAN
Experimental: After coating a BlAcore CM5 chip with (His)₆ mouse ASGPR H1, protein A or protein L purified dAb proteins were injected one after the other and in combination over the same antigen surface. The resulting binding RUs were determined in order to see whether the maximal binding capacity of the chip by one dAb molecule can be exceeded by simultaneously injecting a second dAb onto the same antigen surface. If so, the second dAb clearly binds a different epitope compared to the first one. 1 μM concentrations of each dAb were injected at a flow rate of […], both in single injection and co-injection experiments. If injection of the second dAb in the presence of the first dAb reduced the observed binding to the chip surface by greater than 20% (in comparison to observed binding of the second dAb to the chip surface in the absence of the first dAb) both dAbs were assumed to bind overlapping epitopes within the antigen (FIG. 6). Based on results obtained in these experiments murine ASGPR specific dAb clones could be grouped according to epitopes bound within the antigen as shown in FIG. 12.

[5] = target: T5, human c-kit (His)6 negative control antigen (human, UniProt P10721 26-524, limits assumed); assay: BIAcore, antigens coated on a CM5 chip, human c-kit (His)6 as negative control antigen
T5 construct: Control antigen
Experimental: (§2) FIG. 3: Vκ and VH dAbs selected against recombinant human and mouse ASGPR proteins binding specifically to the target antigen. Antigens were coated on the surface of a CM5 BlAcore chip and protein L purified Vκ dAb DOM26m-20 (top panel) or protein A purified VH dAb DOM26h-61 (bottom panel) was passed over the chip surface at a concentration of 2.5 μM using a flow-rate of […]. In the top panel binding of dAb to (His)₆-mouse ASGPR H1 ( )or human c-kit (His)₆ negative control antigen ( ) is shown. In the bottom panel dAb binding to (His)₆-human ASGPR H1 ( )or human c-kit (His)₆ negative control antigen ( ) is shown.
(§3) Screening by BlAcore took place using dAb supernatant expressed as above diluted 1:2 with HBS-P BlAcore running buffer. Each dAb was then injected over a blank flow cell and a flow cell coated with human or mouse (His)₆-ASGPR H1 on a CM5 chip. […] All unique dAb clones were expressed in 50 ml cultures (OnEX plus carbenicillin) overnight at 37° C. and purified on protein A (VH dAbs) or protein L (Vκ dAbs). Purified dAbs were passed over a CM5 BIAcore chip coated with either human or mouse (His)₆-ASGPR H1 at 20μg/ml (FIG. 3). Those dAbs that bound specifically to (His)₆-ASGPR H1 were then analysed in the flow cytometry cell binding assay (FIG. 4).

[6] = target: T4, (His)6-Mouse ASGPR H1; assay: BIAcore, antigen coated on a CM5 chip, dAb at 2.5 µM
Experimental: as §2, §3

[7] = target: T6, (His)6-Human ASGPR H1 (human, UniProt P07306 62-291); assay: BIAcore, biotinylated (His)6-ASGPR H1 on a streptavidin chip, 62 nM dAb, 40 µl/min
T6 construct: Expressed in HEK293E, Ni-NTA purified; coated on a CM5 chip or biotinylated and captured on a streptavidin chip; The entry includes the His tag; also called human (His)6-ASGPR H1; Human (His)6 ASGPR H1 Q62-L291
T6 sequence: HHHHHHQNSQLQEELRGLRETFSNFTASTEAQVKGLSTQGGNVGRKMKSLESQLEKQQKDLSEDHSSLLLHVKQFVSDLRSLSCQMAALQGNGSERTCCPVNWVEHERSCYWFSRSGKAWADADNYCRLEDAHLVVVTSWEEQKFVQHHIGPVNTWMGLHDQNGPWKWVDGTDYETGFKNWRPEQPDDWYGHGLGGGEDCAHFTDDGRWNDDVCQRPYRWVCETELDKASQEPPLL
Experimental: ( )to human (His)₆-ASGPR H1. Biotinylated (His)₆-ASGPR H1 was immobilised on a Biacore streptavidin chip surface and 62 nM dAb passed over at a flow rate of 40 μl.min⁻¹.

[8] = target: T3, (His)6-Human ASGPR H1 Lectin Domain; assay: BIAcore, biotinylated antigen on a streptavidin chip, 60 nM dAb, 40 µl/min
[9] = target: T6, (His)6-Human ASGPR H1; assay: BIAcore, antigen coated on a CM5 chip, dAb at 2.5 µM
Experimental: as §2, §3

[10] = target: T4, (His)6-Mouse ASGPR H1; assay: BIAcore, biotinylated antigen on a streptavidin chip, FLAG-tagged dAb, 40 µl/min
Description: as §1

T5 sequence (P10721 26-524 limits assumed): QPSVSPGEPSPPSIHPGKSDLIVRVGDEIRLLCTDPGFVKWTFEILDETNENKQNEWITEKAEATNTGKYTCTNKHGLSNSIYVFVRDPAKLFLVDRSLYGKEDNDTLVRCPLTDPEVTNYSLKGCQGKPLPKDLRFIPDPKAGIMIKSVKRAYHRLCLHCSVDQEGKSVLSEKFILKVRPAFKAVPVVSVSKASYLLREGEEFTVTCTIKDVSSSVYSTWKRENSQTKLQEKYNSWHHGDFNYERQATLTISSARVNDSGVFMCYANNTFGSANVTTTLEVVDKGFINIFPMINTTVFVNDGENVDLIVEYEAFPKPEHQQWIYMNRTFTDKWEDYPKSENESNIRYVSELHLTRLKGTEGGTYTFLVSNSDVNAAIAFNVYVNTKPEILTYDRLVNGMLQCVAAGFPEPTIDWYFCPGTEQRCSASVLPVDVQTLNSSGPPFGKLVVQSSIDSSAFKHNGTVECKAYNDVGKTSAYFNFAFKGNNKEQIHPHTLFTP

counts in the liver (percentage of injected dose) 3 hours after injection of DOTA-NHS conjugated, 111In labelled dAb in balb/c mice, against Vκ dummy [1]: 46 fold | binding result [2]: no binding | binding result [3]: binds
B1: DOM26h-161-84 (other, not shown: small tags and cut ends)
VL: DIQMTQSPSSLSASVGDRVTITCRASQAIGRWLLWYQQKPGKAPKLLIGPGSRLRSGVPSRFSGSGSGTDFTLTISSLQPEDFVTYYCQQAYAWPPTFGQGTKVEIKR

binding result [4]: binds
B2: DOM26m-54 (other, not shown: small tags and cut ends)
VL: DIQMTQSPSSLSASVGDRVTITCRASLNIDTDLVWYQQKPGKAPKLLIAGWSGLQSGVPSRFSGSGSGTDFTLTISSLQPEDFATYYCGQFAREPFTFGQGTKVEIKR
notes: human Vκ domain antibody (dAb) selected on mouse ASGPR H1

binding result [4]: binds
B3: DOM26m-50 (other, not shown: small tags and cut ends)
VL: DIQMTQSPSSLSASVGDRVTITCRASISIYEHLNWYQQKPGKAPTLLIWDSSGLQSGVPSRFSGSGSGTDFTLTISSLQPEDFATYYCVQHHSHPPTFGQGTKVEIKR
notes: as for B2

binding result [5]: no binding (tested: 2.5 µM) | binding result [6]: binds
B4: DOM26m-20 (other, not shown: small tags and cut ends)
VL: DIQMTQSPSSLSASVGDRVTITCRASKYIGSDLYWYQQKPGKAPKLLIGGGSRLQSGVSSRFSGSGSGTDFTLTISSLQPEDFATYYCGQKWARPLTFGQGTKVEIKR
notes: human Vκ domain antibody (dAb) selected on mouse ASGPR H1; also called Vκ dAb DOM26m-20

binding result [4]: binds
B5: DOM26m-7 (other, not shown: small tags and cut ends)
VH: EVQLLESGGGLVQPGGSLRLSCAASGFTFDDYEMGWVRQAPGKGLEWVSLISAQGRVTYYADSVKGRFTISRDNSKNTLYLQMNSLRAEDTAVYYCAKNSPSYLLNFDYWGQGTLVTVSS
notes: human VH domain antibody (dAb) selected on mouse ASGPR H1

binding result [7]: binds | binding result [8]: binds | counts in the liver (percentage of injected dose) 3 hours after injection of DOTA-NHS conjugated, 111In labelled dAb in balb/c mice, against VH dummy 2 [1]: ~35 fold | binding result [2]: no binding (tested: 60 nM)
B6: DOM26h-196-61 (other, not shown: small tags and cut ends)
VH: EVQLLESGGGLVQPGGSLRLSCAASGFTFEKYAMAWVRQAPGKGLEWVSRISARGVTTYYADSVKGRFTISRDNSKNTLYLQMNSLRAEDTAVYYCAKHKRHEHTRFDSWGQGTLVTVSS

binding result [7]: binds
B7: DOM26h-196 (other, not shown: small tags and cut ends)
VH: B6 VH with A53M, R54A, V56M, R101K, H102S, E103A
notes: human VH domain antibody (dAb)

binding result [5]: no binding (tested: 2.5 µM) | binding result [9]: binds
B8: DOM26h-61 (other, not shown: small tags and cut ends)
VH: EVQLLESGGGLVQPGGSLRLSCAASGFTFSTYPMHWARQAPGKGLEWVSSISPSGDSTYYADSVKGRFTISRDNSKNTLYLQMNSLRAEDTAVYYCAKNALRFDYWGQGTLVTVSS
notes: human VH domain antibody (dAb); also called VH dAb DOM26h-61

counts in the liver (percent injected dose) 3 hours after intravenous injection of 111In labelled dAb in balb/c mice, against VH dummy 2 [1]: 4.9 fold | counts in the liver (percent injected dose) 3 hours after intravenous injection of 111In labelled dAb in balb/c mice, against Vκ dummy [1]: 12.4 fold
B9: DOM26m-33 carrying the point mutation S116C, DOTA-Maleimide conjugated and 111In labelled (other)
VH: EVQLLESGGGLVQPGGSLRLSCAASGFTFAKYDMIWVRQAPGKGLEWVSGINHSGSRTYYADSVKGRFTISRDNSKNMLYLQMNSLRAEDTAVYYCAKSGSSFDYWGQGTLVTVSC
modifications: DOTA-Maleimide on the C-terminal cysteine (S116C), labelled with 111In

binding result [4]: binds
B10: DOM26m-58 (other, not shown: small tags and cut ends)
VL: DIQMTQSPSSLSASVGDRVTITCRASQPIRNALTWYQQKPGKAPKLLIYRTSHLQSGVPSRFSGSGSGTDFTLTISSLQPEDFATYYCQQTWTMPLTFGQGTKVEIKR
notes: as for B2

binding result [2]: no binding | binding result [10]: binds | binding result [3]: binds
B11: DOM26h-210-2 (other, not shown: small tags and cut ends)
VH: ELQLLEFGGGLVQPGGSLRLSCTTSGFTFSRYTMGWVRQAPGKGLEWVSAIGPPGSNTYYADSVKGRFTISRDNSKNTLYLQMNSLRAEDTAVYYCAKWVMLRGRFDYWGQGTLVTVSS

binding result [4]: binds
B12: DOM26m-29 (other, not shown: small tags and cut ends)
VH: EVQLLESGGGLVQPGGSLRLSCAASGFTFEDSGMIWARQAPGKGLEWVSGIASEGSTTYYADSVKGRFTISRDNSKNTLYLQMNSLRAEDTAVYYCAKSGLSFDYWGQGTLVTVSS
notes: as for B5

binding result [2]: no binding | binding result [10]: binds | binding result [3]: binds
B13: DOM26h-220-1 (other, not shown: small tags and cut ends)
VH: EVQLLESGGGLVQPGGSLRLSCAASGFTFEDYGMGWVRQAPGKGLEWVSAIGRNGSQTYYADSVKGRFTISRDNSKNTLYLQMNSLRAEDTAVYYCAKLRRGRGLNTFTLDYWGQGTLVTVSS
